Assay results published in the supplement of paper PMC9170038.

Test system: MS2 coat protein
Assay: apparent KD of MS2 coat protein; designed switch direction (-1 OFF switch, 1 ON switch): -1; higher = weaker reporter binding
Method in brief: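 SNAP-549-labelled MS2 coat protein was titrated, doubling from 0.7 or 1.5 nM to 3 µM, over designed RNA switches transcribed on Illumina chips by stalled E. coli RNA polymerase. Runs were done without input, with 200 uM small-molecule ligand, or with an oligonucleotide input. Apparent KD is the per-design median over clusters of curve-fitted normalised fluorescence.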

[1] = Eterna round: R95, input ligand: microRNA oligo, concentration not stated
[2] = Eterna round: R95, input ligand: FMN 200 uM
[3] = Eterna round: R95, input ligand: none
[4] = input ligand: microRNA oligo, concentration not stated

Sequence | apparent KD of MS2 coat protein (input ligand: FMN 200 uM) [nM] | apparent KD of MS2 coat protein (input ligand: none) [nM] | apparent KD of MS2 coat protein [1] [nM] | apparent KD of MS2 coat protein [2] [nM] | apparent KD of MS2 coat protein [3] [nM] | apparent KD of MS2 coat protein [4] [nM]
ACAAUGUCAGGAUAUGAACAGCGCGGUCACAAGGAUUGCUUUCAGAAGGGACAUGAGGAUCACCCAUGUCGAUA [Eternabot (L1) Solution 91] (Eterna round: R97, puzzle: Exclusion 4) | 23 | 20 |  |  |  | 
CUACUCGUUGUGAGGAUAUCGUUUUCGUCACGGAUCGAGAAGGCACAUGAGGAUCACCCAUGUUUGAUGUGGAU [JR_BMOE4_Sub091] (puzzle: Brourd's mod of Exclusion 4) |  |  | 30.9 |  |  | 
AGUUGGCGAGGAUAUACAUGAGGAUCACCCAUGUGAGAGAUACUAGUGAGGUCGAUUGGUAGAAGGCGCUGACA [Mat X3R4 m19] (Eterna round: R97, puzzle: Exclusion 3) | 70.8 | 106 |  |  |  | 
AGUACAUUCACGAAAGUGAAUGUACAAUAAGCUUGUGGAACAUGAGGAUCACCCAUGUCCUCAUAAGCUCGUCUUAU [Mat - Sensor v3 - Turn-off var 2 - D31] (puzzle: Sensor v3, turn-off variant 2) |  |  | 68.7 | 16.1 | 14.6 | 
CUGGUGUGAGGAUAUCAGGACACGUACGCGGGCAUGUCAAAUGAGAAGGCACAUGAGGAUCACCCAUGUGGGAC [Geve] (puzzle: Exclusion 4) |  |  | 26 |  |  | 
CCGGCAUGAGGAUAUCCAUCUGGAUCAGACAAGAUCCUGAUGGAGAAGGCACAUGAGGAUCACCCAUGUUACGG [Mat - Exclusion 4 - Eli Mod - D56] (Eterna round: R97, puzzle: Exclusion 4) | 61.8 | 132 |  |  |  | 
GGGUACAAGCUAAGAUCCUACAUGAGGAUCACCCAUGUGGUCCGGUGACGUGAGUCACCGGACUUAGCUCGUCUUGU [salish99_S_TOV1_R5_003] (Eterna round: R97, puzzle: Sensor, turn-off variant 1) | 59.3 | 61.3 |  |  |  | 
GAGUGACAUGAGGAUCACCCAUGUGAGGAUAUCGGACGGACCAAAUUAACAAUAAAUGCGAGAAGGCGCAUCGG [Exclusion 1 V16] (puzzle: Exclusion 1) |  |  | 43.3 | 46.7 | 54.3 | 
CUAUGUGAUUAGGAUAUUACUGGGCUAUCGCCUUGAGAAGGAGUUACAUGAGGAUCACCCAUGUCAACGCGACC [Eternabot (L2) Solution 44] (Eterna round: R97, puzzle: Exclusion 6) | 17.8 | 19.1 |  |  |  | 
UUAGAUAGGUCAGGAUAUCGAUGAUUGAAUAGUAUGAUUUACAUGAGGAUCACCCAUGUUUUGUACGAGAAGGGACGUUAGAUU [JR_ExcNG2_Sub020] (Eterna round: R96, puzzle: Exclusion NG 2) | 26.9 | 28.5 |  |  |  | 22.6
GGGCCUGGUGUAGGAUAUCGUGGGCGGUGUCGGCGAGAAGGACAUGAGGAUCACCCAUGUCCGGGCUCGGGUUCCCGGGCUUGG [second try -37.9 kcal and 14% A] (Eterna round: R96, puzzle: Exclusion NG 1) | 28.5 | 15.4 |  |  |  | 13
AGUAGUUCAGGAUAUGAUGUUGAGUACAUGAGGAUCACCCAUGUAGGUCCUGGAUUUGCAUCAGAAGGGAAUAACU [JR_Ex5_Sub084] (Eterna round: R97, puzzle: Exclusion 5) | 59 | 26.7 |  |  |  | 
GGAUCUUGGGUCAGGAUAUGCUGGUAUUUUUGCCAGCAGAAGGGACAUGAGGAUCACCCAUGUUCUUGGUUUUG [Magic-15] (puzzle: Brourd's mod of Exclusion 4) |  |  | 11 |  |  | 
GGUCAGAUGGUAGGAUAUCCAUAUCGAGUGACCCUUUCAUAACAUGAGGAUCACCCAUGUCGGUGGGAGAAGGGCCGUACGGCG [salish99_ExNG02_R04_010] (Eterna round: R96, puzzle: Exclusion NG 2) | 43.9 | 41.7 |  |  |  | 32.8
GAAAACGAAGAGGAUAUAUGAUAUCAAAGCUUCAUAGAAGGCUUCACAUGAGGAUCACCCAUGUGAUCUUCAAU [Mat - Exclusion 6 - JL Mod - D23] (Eterna round: R97, puzzle: Exclusion 6) | 244 | 41.6 |  |  |  | 
UUUGUACAUGAGGAUCACCCAUGUCAGGAUAUGUCAUCGCCGUUUCCCAGCCGGCGUCACAGAAGGGACAUGCA [EX1 C.5] (Eterna round: R97, puzzle: Exclusion 1) | 56.6 | 26.2 |  |  |  | 
CCAAGCUUGUUCAUUAUCCACAUGAGGAUCACCCAUGUCUUGGCAAUUAUGACCUGCCCGUCAGGAGCUCGUCUUAU [Sensor-V1 #37] (Eterna round: R97, puzzle: Sensor, turn-off variant 1) | 316 | 346 |  |  |  | 

Sequence | apparent KD of MS2 coat protein (input ligand: FMN 200 uM) [nM] | apparent KD of MS2 coat protein (input ligand: none) [nM] | apparent KD of MS2 coat protein [1] [nM] | apparent KD of MS2 coat protein [2] [nM] | apparent KD of MS2 coat protein [3] [nM] | apparent KD of MS2 coat protein [4] [nM]
UUACAAUGUCGCUUACAAGCUUUUUGCUCGUCUUAUAUUACAUGAGGAUCACCCAUGUAGAUCAUGUGGCGUGACCU [JL ViennaUCT Maridi mod 9] (puzzle: Sensor v3, turn-off variant 2) |  |  | 23.3 | 165 | 208 | 
GGAAUGUAAGGAUAUCCGAAAGGCGAGCGAAAGCGAGCAAAGGAGAAGGUACAUGAGGAUCACCCAUGUAAGGG [AK-MS2ROC-r4-exclusion4-11.3] (Eterna round: R97, puzzle: Exclusion 4) | 163 | 513 |  |  |  | 
AACCUGAGGCAAAGCUUUAGGUGUACAUGAGGAUCACCCAUGUAGGAUAUGGUAGGCAAAGCUUACCAGAAGGACAUUUAGGUU [Mat - Exclusion NG 3 - Mod of JL - D44] (Eterna round: R96, puzzle: Exclusion NG 3) | 81.6 | 52.1 |  |  |  | 36.5
CUUUUGUGAGGAUAUCAGUAGUAUAAAAAUAAAAUUACUACUGAGAAGGCACAUGAGGAUCACCCAUGUUCCUC [salish99_ex4_r3_017] (puzzle: Exclusion 4) |  |  | 37.4 |  |  | 
CUUGUUUAAGUGAGGAUAUACUGUUAGUAAUGAUUGUAGAAGGUACAUGAGGAUCACCCAUGUUUAUUUAUAUU [JR_BME4_Sub042] (puzzle: Brourd's mod of Exclusion 4) |  |  | 16.4 |  |  | 
AGUCCGUCAGGAUAUGCAAUUGUGGACAUGAGGAUCACCCAUGUAACGUGGGCAUGGUUUGUAGAAGGGACGUGCA [EX5 #92] (Eterna round: R97, puzzle: Exclusion 5) | 129 | 95.3 |  |  |  | 
ACAAGCUUUUAGAUUUUCAACAUGAGGAUCACCCAUGUUCGUCUUAGGCGAGUGCGAGUGCGGUGUACUCGUAUUAG [JL TOV1 3.85 sellena mod] (Eterna round: R97, puzzle: Sensor, turn-off variant 1) | 22.2 | 21.9 |  |  |  | 
CCAAGCUUUUUCAUUAACAACAUGAGGAUCACCCAUGUGUAAGCAAUUAUGUUUGGGCUCUUUAGUGCUCGUCUUAU [JR_STOV1_Sub042] (Eterna round: R97, puzzle: Sensor, turn-off variant 1) | 17.4 | 16.7 |  |  |  | 
UAGGAGUCAGGAUAUGCGAGAGAUGGAAGAAAGGGAAGAGAGCAGAAGGGACAUGAGGAUCACCCAUGUAAGGA [JR_Exclu4_Sub090] (puzzle: Exclusion 4) |  |  | 35.7 | 34.2 | 36.1 | 
CUUUUGUGAGGAUAUUUGUAGUAAAUAAAUAAAAUUACUACUGAGAAGGCACAUGAGGAUCACCCAUGUUCCUC [salish99_ex4_r3_042] (Eterna round: R96, puzzle: Exclusion 4) | 200 | 28.6 |  |  |  | 24.4
CUUCUCAGAGGAUAUCACGGUAAUAACAUGAGGAUCACCCAUGUGGAAUUCGUGUCCCUGUGAGAAGGCUGAGAAG [Bezavere] (puzzle: Exclusion 5) |  |  | 12.2 | 33.2 | 16 | 
GAUGGACAUGAGGAUCACCCAUGUAAGGAUAUUGAUUGUGGCUAUAAAUAGUUACGGUCAAGAAGGUACUCGUC [-21.6, -18.6 kcal, A 31%] (Eterna round: R97, puzzle: Exclusion 1) | 128 | 161 |  |  |  | 
AUAUAGAUGGUCAGGAUAUGCUAGUGAUAACAGUAGCAGAAGGGACAUGAGGAUCACCCAUGUGGAUACCGCAC [Brourd's EX4 #7] (Eterna round: R97, puzzle: Brourd's mod of Exclusion 4) | 122 | 31.9 |  |  |  | 
AGUACUAACACGAAAGUGUUAGUACAAUAAGCUUGUGGAACAUGAGGAUCACCCAUGUCCUCAUAAGCUCGUCUUAU [JL-sv3-2.12 mat747 mod] (puzzle: Sensor v3, turn-off variant 2) |  |  | 71.4 | 16.8 | 16.9 | 
GUGAAACAUGAGGAUCACCCAUGUGAGGAUAUGUUUUAGUAAUGAUGAAAGUAAAUCUACAGAAGGCACAAUGG [Mat - Mod of JL D70] (puzzle: Exclusion 1) |  |  | 77.9 |  |  | 
AAAUGGAACAGAGGAUAUAGGGACAUGAGGAUCACCCAUGUUUUUUUUGGUUGGGUGGGUUUGGGCUAGAAGGCUGGGAAGAAA [Kawasakiqro] (Eterna round: R96, puzzle: Exclusion NG 2) | 30.2 | 33 |  |  |  | 26.8
ACAUUGCUAGGAUAUCGCGGUAAGGACAUGAGGAUCACCCAUGUGGUGCCGUGGGAGGCCCGAGAAGGAGCGACCU [Maveonle] (puzzle: Exclusion 5) |  |  | 18.1 |  |  | 
